Square brackets hold non-standard residues; d marks the D form. Ends that are not written are not given here. Nle = CCCC[C@H](N)C(=O)O
T1: Hog Intrinsic Factor (Sus scrofa)
T1 construct: The source of the HIF sample used in the ELISAs is not described; also called HIF; Intrinsic Factor from Sus scrofa
T1 chain: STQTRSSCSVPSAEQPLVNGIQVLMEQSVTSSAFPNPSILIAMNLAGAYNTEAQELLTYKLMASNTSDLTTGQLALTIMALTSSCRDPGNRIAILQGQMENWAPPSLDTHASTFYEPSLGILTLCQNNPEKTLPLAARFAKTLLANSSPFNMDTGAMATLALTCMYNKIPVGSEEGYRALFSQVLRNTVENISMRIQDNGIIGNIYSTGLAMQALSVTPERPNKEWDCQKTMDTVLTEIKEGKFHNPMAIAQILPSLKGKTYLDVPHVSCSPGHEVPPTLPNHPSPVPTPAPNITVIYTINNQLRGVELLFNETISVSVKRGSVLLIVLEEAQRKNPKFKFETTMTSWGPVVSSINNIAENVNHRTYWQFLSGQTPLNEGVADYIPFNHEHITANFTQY

T2: R2 peptide (Hog TCN1 Peptide 80-89) (Sus scrofa)
T2 construct: Synthetic peptide QDDXNRRDXS, X = norleucine; also called synthetic R2 peptide
T2 peptide: QDD[Nle]NRRD[Nle]S

T3: recombinant yeast-produced non-glycosylated pig TCN1 protein (Lifespan Biosciences, LS-G23154) (Sus scrofa, UniProt P17630 26-417)
T3 construct: Bought protein, Mw 46.3 kDa, non-glycosylated; also called rec Pig TCN1; recombinant Pig TCN1
T3 sequence: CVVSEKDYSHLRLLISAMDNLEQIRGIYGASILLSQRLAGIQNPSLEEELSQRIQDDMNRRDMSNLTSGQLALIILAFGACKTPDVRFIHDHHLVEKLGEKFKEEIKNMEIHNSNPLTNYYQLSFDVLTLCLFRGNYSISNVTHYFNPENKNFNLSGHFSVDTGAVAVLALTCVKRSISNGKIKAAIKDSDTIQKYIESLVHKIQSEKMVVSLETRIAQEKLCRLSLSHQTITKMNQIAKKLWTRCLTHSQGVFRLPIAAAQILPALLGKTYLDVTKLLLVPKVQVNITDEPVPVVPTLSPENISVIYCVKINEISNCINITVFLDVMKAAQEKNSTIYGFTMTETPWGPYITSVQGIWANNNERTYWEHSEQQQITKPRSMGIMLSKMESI

T4: native Hog R-protein (glycosylated Hog TCN1 purified from crude powdered extract of hog gastric mucosa) (Sus scrofa, UniProt P17630 26-417, glycosylated, up to about 50% w/w carbohydrates)
T4 construct: Mw about 70-92 kDa; The native preparation used for Biacore is not described further; also called native Hog TCN1; partially purified native Hog R-protein
T4 sequence: T3 sequence

B1: 171B 1G5 monoclonal antibody (antibody, V domains shown)
VH: EVQLQESGPSLVKPSQTLSLTCSVTGDSITSDYWNWIRKFPGNKLEYMGYISYSGNTYYIPSLKSRISITRDTSKNQYYLQLNSVTSEDTATYYCARYDYDVYFSLDYWGQGTSVTVSS
VL: DVVMTQTPLSLPVSLGDQASISCRSSQSLVHSNRNTYLHWYLQRPGQSPKLLVYKVSNRFSGVPDRFSGSGSGTDFTLKISRVEAEDLGVYFCSQSTHVPLTFGAGTKLELKR
B2: 171J 3F1 monoclonal antibody (antibody, mouse IgG1, V domains shown)
VH: EVQLQQSGPELLKPGVSVMISCRASGYTFTDYTMHWVKQSHGESLEWIGGIIPKSGTSNYNEKFKDKATLTVDKSSSTSYMELRSLTSEDSAVYYCARNYYDGGSYYFDYWGQGTTLTVSS
VL: DIQMTQSPASLSASVGETVTITCRTSGNIHNFLTWFQQKQGKSPQLLVYSAETLADGVPSRFSGSGSGTQFSLRINSLQPEDFGSYFCQHFWNTPFTFGSGTKLEMK
notes: Mouse IgG1, kappa, from a hybridoma (immunogen partially purified native Hog R-protein)
B3: 171J 9G7 monoclonal antibody (antibody, mouse IgG1, V domains shown)
VH: EVQLQQSGAELVKPGASVKLSCTGSGFNIEDIYIHWVKQRPEQGLEWIGRMDPANGDTVYASKFQGKATMTADTSSNTAYMQLSSLTSGDTAVYYCARVFDYWGQGTSLTVSS
VL: DVVMTQTPLSLPVSLGDQASISCRSSQNLVHSNGYTYLHWYLQKPGQSPKLLIYKVSNRFSGVPDRFSGSGSGTDFTLKISRVEAEDLGVYFCSQNTHVPYTFGGGTKLEIK
notes: as for B2
B4: 171J 5H12 monoclonal antibody (antibody, mouse IgG1, V domains shown)
VH: QVQLQQSGAELVKPGASVKISCKASGYAFSSSWMNWVKQRPGKGLEWIGQIYPGDGDTNYNGKFKDKATLTADKSSNTAYMQLSSLTSEDSAVYFCARVNWDAFSYIDVWGTGTTVTVSS
VL: DIKMTQSPSSMYESLGERVTITCRASQDINVYLSWFQQKPGESPKTLIYRADRLVDGVPSRFSGSGSGQDYSLTISSLEYEDVGIYYCLQYDEFPYTFGGGTKLEIK
notes: as for B2
B5: 171J 3A6 monoclonal antibody (antibody, mouse IgG2b, V domains shown)
VH: QVQLQQPGAELVRPGALVKLSCKASGYTFTRYWIQWVKQRPGQGLEWIGNISPNSGSVNYSEKFKGKATLTVDKPSSTAYMQLNSLTSEDSAAYYCVRSGGDYFDYWGQGTTLTVSS
VL: DVLMTQTPLSLPVSLGVQASISCRSSQSILHANGNTYLEWYLQKPGQSPKLLIYKVSNRFSGVPDRFSGSGSGTDFTLYISRVEAEDLGVYYCFQGSHLPWTFGGGTKLEIK
notes: Mouse IgG2b, kappa, from a hybridoma (immunogen partially purified native Hog R-protein)

What was measured:
[1] = target: T1, Hog Intrinsic Factor; assay: ELISA, antigen titrated on the plate, mAb at 1 µg/mL, goat anti-mouse IgG-HRP, OD 650 nm
Experimental: (§1) Purified mAbs were tested in an ELISA assay for binding to corresponding peptide, partially purified native Hog-R-protein, and recombinant Pig TCN1 (Lifespan BioSciences, LS-G23154, Seattle, Wash.), and Hog Intrinsic Factor. For this purpose, 2-fold dilution of the antigens starting from 8 μg/mL in PBS were placed in the wells of ELISA plates at 50 μl per well for 1 hour at room temperature. The plates were flicked dry, blocked with 200 μl per well of blocking solution, and washed three times as described above. Monoclonal antibodies to Hog TCN1 peptides at 1 μg/mL in PBS were added at 50 μl per well. After 1-hour incubation, the plates were washed again, and goat anti-mouse IgG-HRP conjugate diluted 1:3,000 in blocking solution was added at 50 μl per well for 1 hour. The plates were washed, and TMB substrate (Moss, Pasadena, Md.) was added at 100 μl per well for 15 minutes. Plates were read at 650 nm using an ELISA plate reader.

[2] = target: T2, R2 peptide (Hog TCN1 Peptide 80-89); assay: ELISA, antigen titrated on the plate (2-fold from 8 µg/mL), mAb at 1 µg/mL, goat anti-mouse IgG-HRP, OD 650 nm
Experimental: as §1

[3] = target: T3, recombinant yeast-produced …; assay: SPR (Biacore T200), mAb immobilised on CM5 chip, antigen injected at 25-1600 nM, 1:1 fit
Experimental: (§2) The binding parameters of the interaction between the anti-Hog TCN1 monoclonal antibodies and the TCN1 protein were determined in kinetics experiments using Biacore T200 equipped with Biacore T200 Control Software Version 2.0.1 (GE Healthcare Bio-Sciences, Pittsburgh, Pa.). Anti-Hog TCN1 mAbs were immobilized at 700-5,000 RU density on the carboxymethyl dextran surface in flow cells 2, 3, and 4 of the CM5 sensor chip using amino-coupling chemistry. Control antibody was immobilized in flow cell 1 for bulk effects subtraction. Recombinant Pig TCN1 (LifeSpan BioSciences, LS-G23154, Seattle, Wash.) or native Hog R-protein were injected over the surfaces with immobilized mAbs during 8 minutes at a 30 μL/min flow rate followed by 20 minutes of dissociation. The buffer blanks were run in triplicate by injection of running buffer (10 mM HEPES, 150 mM NaCl, 0.05% P-20, pH 7.4) and used to double-reference the mAb-binding data before fitting. After each cycle of binding, the surface was regenerated by two consecutive injections of 10 mM Glycine, pH 2.0 and 0.1 M Sodium Bicarbonate, pH 8.5 for 30 seconds each at a 30 μL/min flow rate. Kinetic data were collected over 25-1600 nM antigen concentrations and globally fitted to a simple 1:1 interaction model. Biacore T200 Evaluation Software Version 3.0 (GE Healthcare Bio-Sciences) was used to determine the binding parameters of the Hog TCN1 specific mAbs interaction. Kinetic parameters of the binding of the anti-Hog TCN1 monoclonal antibodies with rec Pig TCN1 and native Hog R-protein are presented in Table 5.

[4] = target: T1, Hog Intrinsic Factor; assay: ELISA, single point, hybridoma supernatant on plate coated with Hog Intrinsic Factor, OD 650 nm
Experimental: One week after the last injection, the mice were bled, and the serum samples were tested for peptide-specific antibodies in an ELISA assay with corresponding ovalbumin conjugates and free peptides. All ELISA steps were performed at room temperature. Nunc Maxi-Sorp™ flat-bottom ELISA plates were coated with peptide or peptide-OVA conjugate at 2 and 1 μg/mL in PBS, respectively, at 50 μl per well for 1 hour. The plates were flicked dry, and the remaining binding sites were blocked by adding 200 μl per well of blocking solution (0.5% Casein in PBS containing 0.05% Tween 20) for 1 hour. Plates were washed three times with Milli-Q water containing 0.05% Tween 20, and antibody samples to be tested (serum, hybridoma supernatant, or mAb dilutions in PBS) were placed in the wells of the plates at volume 50 μl per well. After incubation for one hour, the plates were washed again as described above, and goat anti-mouse IgG-HRP conjugate diluted 1:3,000 in blocking solution was added at 50 μl per well for 1 hour. The plates were washed, and TMB substrate (Moss, Pasadena, Md.) was added at 100 μl per well for 15 minutes. Optical density of the samples at 650 nm was measured using an ELISA plate reader.
Mice received prefusion boosts on three consecutive days with the same immunogen (10 μg/dose/animal in PBS, IP), and on the fourth day, mouse spleens were harvested and frozen. Several years later, when recombinant Pig TCN1 protein became commercially available, thawed immune splenocytes were used for hybridoma preparation according to the standard procedure described above in Example 1. Hybridoma supernatants were screened for binding both rec Pig TCN1 (LifeSpan BioSciences, LS-G23154, Seattle, Wash.) and partially purified native Hog-R-protein adsorbed on ELISA plates at 1 μg/mL in 50 μl volume per well. Several hybridomas giving positive signals on both antigens were selected. […] No cross-reactivity of the monoclonal antibodies with Hog Intrinsic Factor was observed. The hybridomas were sub-cloned by limiting dilution, expanded, and frozen.

[5] = target: T3, recombinant yeast-produced …; assay: SPR (Biacore T200), mAb immobilised on CM5 chip, antigen injected at 25-1600 nM, 1:1 fit; rec TCN1 protein (non-glycosylated, yeast-produced)
Experimental: as §2, with “Biacore T200 Evaluation Software Version 3.0 (GE Healthcare Bio-Sciences) was used to determine the binding parameters of the Hog TCN1 specific mAbs interaction. Kinetic parameters of the binding of the anti-Hog TCN1 monoclonal antibodies with rec Pig TCN1 and native Hog R-protein are presented in Table 5.” left out

[6] = target: T4, native Hog R-protein (glycosylated Hog …); assay: SPR (Biacore T200), mAb immobilised on CM5 chip, antigen injected at 25-1600 nM, 1:1 fit; native Hog R-protein (heavily glycosylated)
Experimental: as §2, with “Biacore T200 Evaluation Software Version 3.0 (GE Healthcare Bio-Sciences) was used to determine the binding parameters of the Hog TCN1 specific mAbs interaction. Kinetic parameters of the binding of the anti-Hog TCN1 monoclonal antibodies with rec Pig TCN1 and native Hog R-protein are presented in Table 5.” left out

[7] = target: T3, recombinant yeast-produced …; assay: SPR (Biacore T200); reference is the same mAb on native Hog R-protein
Experimental: as §2, with “Biacore T200 Evaluation Software Version 3.0 (GE Healthcare Bio-Sciences) was used to determine the binding parameters of the Hog TCN1 specific mAbs interaction. Kinetic parameters of the binding of the anti-Hog TCN1 monoclonal antibodies with rec Pig TCN1 and native Hog R-protein are presented in Table 5.” left out

[8] = target: T4, native Hog R-protein (glycosylated Hog …); assay: SPR (Biacore T200), mAb immobilised on CM5 chip, antigen injected at 25-1600 nM, 1:1 fit
Experimental: as §2

Binder	binding result [1]	binding result [2]	Kd [3] [nM]	koff [3] [s⁻¹]	kon [3] [M⁻¹ s⁻¹]	binding result [4]	kon [5] [M⁻¹ s⁻¹]	Kd [6] [nM]	fold higher affinity than to native Hog R-protein [7] [fold]	koff [8] [s⁻¹]	kon [8] [M⁻¹ s⁻¹]	Kd [8] [nM]
B1	no binding	binds	72.3	0.0047	65000							
B2			2.3	0.000165	71500	no binding						
B3						no binding	50600	143	> 500	0.00069	4830	
B4						no binding				1.9e-05	115000	0.17
B5			2.6	6.81e-05	26000	no binding						

Source: US20220332803A1 (SIEMENS HEALTHCARE DIAGNOSTICS, published 2022)
